T1: Rpn3, subunit of LP2 and lid purified from yeast (S. cerevisiae, UniProt P40016 1-523)
T1 construct: Rpn3, S. cerevisiae proteasome lid subunit; source: purified from S. cerevisiae as part of LP2 or lid
T1 sequence (looked up): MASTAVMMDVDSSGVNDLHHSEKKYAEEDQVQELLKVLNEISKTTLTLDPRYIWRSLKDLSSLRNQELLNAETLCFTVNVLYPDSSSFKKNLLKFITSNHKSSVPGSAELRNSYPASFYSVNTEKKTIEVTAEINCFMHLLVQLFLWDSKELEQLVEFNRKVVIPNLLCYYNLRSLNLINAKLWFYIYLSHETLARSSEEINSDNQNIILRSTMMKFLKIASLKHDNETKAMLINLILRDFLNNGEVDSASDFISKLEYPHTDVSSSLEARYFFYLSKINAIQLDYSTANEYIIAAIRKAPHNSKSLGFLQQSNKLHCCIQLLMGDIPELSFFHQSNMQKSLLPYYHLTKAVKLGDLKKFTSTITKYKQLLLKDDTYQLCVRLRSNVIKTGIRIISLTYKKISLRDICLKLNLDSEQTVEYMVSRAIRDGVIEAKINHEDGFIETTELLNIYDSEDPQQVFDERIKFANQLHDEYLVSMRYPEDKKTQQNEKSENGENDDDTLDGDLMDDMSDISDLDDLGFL

T2: Rpn9, subunit of LP2 and lid purified from yeast (S. cerevisiae, UniProt Q04062 1-393)
T2 construct: Rpn9, S. cerevisiae proteasome lid subunit; source: purified from S. cerevisiae as part of LP2 or lid
T2 sequence (looked up): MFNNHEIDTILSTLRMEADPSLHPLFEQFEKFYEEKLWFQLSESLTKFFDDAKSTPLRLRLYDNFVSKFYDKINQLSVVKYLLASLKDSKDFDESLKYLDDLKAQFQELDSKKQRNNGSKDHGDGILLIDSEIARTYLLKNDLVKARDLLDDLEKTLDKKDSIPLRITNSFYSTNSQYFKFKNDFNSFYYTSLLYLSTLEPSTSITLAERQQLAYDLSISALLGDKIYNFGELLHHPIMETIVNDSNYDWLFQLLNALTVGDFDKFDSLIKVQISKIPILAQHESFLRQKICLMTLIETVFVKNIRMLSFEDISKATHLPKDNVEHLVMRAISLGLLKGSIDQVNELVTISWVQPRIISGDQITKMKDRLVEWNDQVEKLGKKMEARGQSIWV

T3: Rpn7, subunit of LP2 and lid purified from yeast (S. cerevisiae, UniProt Q06103 1-429)
T3 construct: Rpn7, S. cerevisiae proteasome lid subunit; source: purified from S. cerevisiae as part of LP2 or lid
T3 sequence (looked up): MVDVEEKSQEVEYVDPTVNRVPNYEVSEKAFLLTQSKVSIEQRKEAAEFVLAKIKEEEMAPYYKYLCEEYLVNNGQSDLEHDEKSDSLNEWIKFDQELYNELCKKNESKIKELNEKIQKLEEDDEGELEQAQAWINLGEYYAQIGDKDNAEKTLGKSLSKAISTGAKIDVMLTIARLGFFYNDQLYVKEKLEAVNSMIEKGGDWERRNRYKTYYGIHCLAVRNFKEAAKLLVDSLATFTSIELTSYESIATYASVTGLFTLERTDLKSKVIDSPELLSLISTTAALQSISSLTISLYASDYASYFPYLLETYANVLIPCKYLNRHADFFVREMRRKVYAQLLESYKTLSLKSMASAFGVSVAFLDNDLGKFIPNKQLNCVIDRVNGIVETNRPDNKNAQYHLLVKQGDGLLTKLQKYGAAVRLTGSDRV

B1: Rpn6, subunit of LP2 and lid purified from yeast (natural protein, S. cerevisiae, UniProt Q12377 1-434, looked up)
chain: MSLPGSKLEEARRLVNEKQYNEAEQVYLSLLDKDSSQSSAAAGASVDDKRRNEQETSILELGQLYVTMGAKDKLREFIPHSTEYMMQFAKSKTVKVLKTLIEKFEQVPDSLDDQIFVCEKSIEFAKREKRVFLKHSLSIKLATLHYQKKQYKDSLALINDLLREFKKLDDKPSLVDVHLLESKVYHKLRNLAKSKASLTAARTAANSIYCPTQTVAELDLMSGILHCEDKDYKTAFSYFFESFESYHNLTTHNSYEKACQVLKYMLLSKIMLNLIDDVKNILNAKYTKETYQSRGIDAMKAVAEAYNNRSLLDFNTALKQYEKELMGDELTRSHFNALYDTLLESNLCKIIEPFECVEISHISKIIGLDTQQVEGKLSQMILDKIFYGVLDQGNGWLYVYETPNQDATYDSALELVGQLNKVVDQLFEKASVLY
notes: Rpn6, S. cerevisiae proteasome lid subunit; Also stands as the whole protein for the region row on the E. coli truncations; source: purified from S. cerevisiae as part of LP2 or lid
B2: Rpn5, subunit of LP2 and lid purified from yeast (natural protein, S. cerevisiae, UniProt Q12250 1-445, looked up)
chain: MSRDAPIKADKDYSQILKEEFPKIDSLAQNDCNSALDQLLVLEKKTRQASDLASSKEVLAKIVDLLASRNKWDDLNEQLTLLSKKHGQLKLSIQYMIQKVMEYLKSSKSLDLNTRISVIETIRVVTENKIFVEVERARVTKDLVEIKKEEGKIDEAADILCELQVETYGSMEMSEKIQFILEQMELSILKGDYSQATVLSRKILKKTFKNPKYESLKLEYYNLLVKISLHKREYLEVAQYLQEIYQTDAIKSDEAKWKPVLSHIVYFLVLSPYGNLQNDLIHKIQNDNNLKKLESQESLVKLFTTNELMRWPIVQKTYEPVLNEDDLAFGGEANKHHWEDLQKRVIEHNLRVISEYYSRITLLRLNELLDLTESQTETYISDLVNQGIIYAKVNRPAKIVNFEKPKNSSQLLNEWSHNVDELLEHIETIGHLITKEEIMHGLQAK
notes: Rpn5, S. cerevisiae proteasome lid subunit; source: purified from S. cerevisiae as part of LP2 or lid
B3: Rpn8, subunit of LP2 and lid purified from yeast (natural protein, S. cerevisiae, UniProt Q08723 1-338, looked up)
chain: MSLQHEKVTIAPLVLLSALDHYERTQTKENKRCVGVILGDANSSTIRVTNSFALPFEEDEKNSDVWFLDHNYIENMNEMCKKINAKEKLIGWYHSGPKLRASDLKINELFKKYTQNNPLLLIVDVKQQGVGLPTDAYVAIEQVKDDGTSTEKTFLHLPCTIEAEEAEEIGVEHLLRDVRDQAAGGLSIRLTNQLKSLKGLQSKLKDVVEYLDKVINKELPINHTILGKLQDVFNLLPNLGTPDDDEIDVENHDRINISNNLQKALTVKTNDELMVIYISNLVRSIIAFDDLIENKIQNKKIQEQRVKDKQSKVSDDSESESGDKEATAPLIQRKNKKN
notes: Rpn8, S. cerevisiae proteasome lid subunit; source: purified from S. cerevisiae as part of LP2 or lid
B4: Rpn12-E271K, recombinant (natural protein, S. cerevisiae, UniProt P32496 1-274, looked up)
chain: MPSLAELTKSLSIAFENGDYAACEKLLPPIKIELIKNNLLIPDLSIQNDIYLNDLMITKRILEVGALASIQTFNFDSFENYFNQLKPYYFSNNHKLSESDKKSKLISLYLLNLLSQNNTTKFHSELQYLDKHIKNLEDDSLLSYPIKLDRWLMEGSYQKAWDLLQSGSQNISEFDSFTDILKSAIRDEIAKNTELSYDFLPLSNIKALLFFNNEKETEKFALERNWPIVNSKVYFNNQSKEKADYEDEMMHEEDQKTNIIEKAMDYAISIKNIV
notes: Rpn12, S. cerevisiae proteasome lid subunit, Glu271 to lysine
B5: Sem1, subunit of LP2 and lid purified from yeast (natural protein, S. cerevisiae, UniProt O94742 1-89, looked up)
chain: MSTDVAAAQAQSKIDLTKKKNEEINKKSLEEDDEFEDFPIDTWANGETIKSNAVTQTNIWEENWDDVEVDDDFTNELKAELDRYKRENQ
notes: Sem1, S. cerevisiae proteasome lid subunit; source: purified from S. cerevisiae as part of LP2 or lid

Legend:
Conditions in all cases: both partners purified
[1] = biological target: T1, Rpn3, subunit of LP2 and lid purified …; test: negative-stain EM; single-particle 3D reconstruction of LP2 purified from yeast at 16 Å; ~50 nM complex in Buffer A, 2% uranyl acetate
[2] = biological target: B2; test: cross-linking; QCLMS of lid purified from yeast as a whole complex: BS3-d0 / BS3-d4 at 1:200 protein to cross-linker, Buffer HA, 30°C 1 h; monomeric cross-linked complex cut from SDS-PAGE, trypsin, LC-MS/MS
[3] = biological target: T1, Rpn3, subunit of LP2 and lid purified …; test: as above
[4] = biological target: B1; test: cross-linking; QCLMS of LP2 purified from yeast as a whole complex: BS3-d0 / BS3-d4 at 1:200 protein to cross-linker, Buffer HA, 30°C 1 h; monomeric cross-linked complex cut from SDS-PAGE, trypsin, LC-MS/MS
[5] = biological target: T2, Rpn9, subunit of LP2 and lid purified …; test: as above
[6] = biological target: T4, lid particle 2 (LP2), recombinant (S. cerevisiae, UniProt P40016 1-523; Q12250 1-445; Q12377 1-434; Q06103 1-429; Q08723 1-338; Q04062 …); test: native gel or EMSA; RP assembly assay: recombinant components 1 uM each with 10 uM Rpn10 in 26S buffer (50 mM Tris-HCl pH 7.5, 5 mM MgCl2, 10% glycerol, 1 mM ATP), 30°C 20 min; native PAGE at 4°C; Coomassie or immunoblot (FLAG on Rpt1, HA on Rpn7, Rpn12)
T4 construct: Rpn3, S. cerevisiae proteasome lid subunit; Rpn5, S. cerevisiae proteasome lid subunit; Rpn6, S. cerevisiae proteasome lid subunit; Rpn7, S. cerevisiae proteasome lid subunit; Rpn8, S. cerevisiae proteasome lid subunit; Rpn9, S. cerevisiae proteasome lid subunit; Rpn11, S. cerevisiae proteasome lid subunit; Sem1, S. cerevisiae proteasome lid subunit; legends speak of 'untagged LP2'; operons as in …
T4 sequence (P43588 whole entry, one chain of several): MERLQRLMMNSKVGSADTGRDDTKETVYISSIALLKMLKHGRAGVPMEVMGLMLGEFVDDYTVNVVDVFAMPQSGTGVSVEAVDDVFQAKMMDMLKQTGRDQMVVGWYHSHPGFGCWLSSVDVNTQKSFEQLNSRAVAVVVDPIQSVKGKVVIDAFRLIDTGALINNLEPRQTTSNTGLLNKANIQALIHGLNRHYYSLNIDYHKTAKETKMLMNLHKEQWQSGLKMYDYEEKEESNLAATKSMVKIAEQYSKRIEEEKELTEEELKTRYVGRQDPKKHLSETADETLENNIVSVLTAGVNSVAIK

[7] = biological target: B3; test: cross-linking; QCLMS of lid purified from yeast as a whole complex: BS3-d0 / BS3-d4 at 1:200 protein to cross-linker, Buffer HA, 30°C 1 h; monomeric cross-linked complex cut from SDS-PAGE, trypsin, LC-MS/MS
[8] = biological target: T1, Rpn3, subunit of LP2 and lid purified …; test: cross-linking; QCLMS of LP2 purified from yeast as a whole complex: BS3-d0 / BS3-d4 at 1:200 protein to cross-linker, Buffer HA, 30°C 1 h; monomeric cross-linked complex cut from SDS-PAGE, trypsin, LC-MS/MS
[9] = biological target: T3, Rpn7, subunit of LP2 and lid purified …; test: as above

Binder: B1
binding result [1]: binds
binding result [2]: binds

Binder: B2
binding result [3]: binds

Binder: B3
binding result [2]: binds
binding result [4]: binds
binding result [5]: binds

Binder: B4
binding result [6]: binds

Binder: B5
binding result [7]: binds
binding result [8]: binds
binding result [9]: binds

From PMC4601081, “A Single α Helix Drives Extensive Remodeling of the Proteasome Lid and Completion of Regulatory Particle Assembly” (Cell, 2015)
